# Test results taken from patent US20170240920A1.
# Biological target: RQR8
# Assay: cell-based or functional assay
substance,measurement,value
clinical grade human-rituximab (antibody),"eGFP positive cells in the sorted fraction (K562 cells, human rituximab on protein-A beads)",89.4%
same,transduced target cells with LV sorted with beads (RDpro pseudotyped LV),14.1%
same,transduced target cells with the purified fraction (VSV-G pseudotyped LV),73.6%
